Patent US20180155450A1 (Sanofi, published 2018)
Numbering of substitutions follows the chain as printed. In names and notes the source's numbering stands. Where two headings read alike, the source gives them in different places. Each block holds one binder with its values, some of them ahead of it.

What was measured:
recombinant human IL4 [1] = molecular target: T1, recombinant human IL4 (human, UniProt P05112 25-153); assay: SPR, BIACORE 3000; antibody captured by anti-human Fc, antigen 0-25 nM as analyte
T1 construct: also called Antigen1
T1 sequence (looked up): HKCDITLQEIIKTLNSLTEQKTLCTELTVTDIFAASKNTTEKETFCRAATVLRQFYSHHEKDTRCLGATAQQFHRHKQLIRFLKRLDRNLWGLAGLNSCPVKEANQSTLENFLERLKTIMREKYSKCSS
Experimental: Kinetic characterization of purified antibodies was performed using surface plasmon resonance technology on a BIACORE 3000 (GE Healthcare). […] Chip surfaces were regenerated with 10 mM glycine, pH 2.5. Kinetic parameters were analyzed and calculated in the BIAevaluation program package v4.1 using a flow cell without captured antibody as reference.

recombinant human IL4 [2] = molecular target: T1, recombinant human IL4; assay: kinetic table drawn in the figure; assay not named in Example 9, parental rows equal the BIACORE values of Table 6
recombinant human IL4 [3] = molecular target: T1, recombinant human IL4; assay: SPR, Biacore 3000; CODV-Ig captured by anti-human Fc, antigen as analyte
Experimental: (§1) Kinetic binding analysis by Biacore was performed as follows. Surface plasmon resonance technology on a Biacore 3000 (GE Healthcare) was used for detailed kinetic characterization of purified antibodies. […] Chip surfaces were regenerated with 10 mM glycine pH 2.5. Kinetic parameters were analyzed and calculated in the BIAevaluation program package v4.1 using a flow cell without captured antibody as a reference.

recombinant human IL13 [4] = molecular target: T2, recombinant human IL13 (human, UniProt P35225 35-146, limits assumed); assay: as above
T2 construct: also called Antigen2
T2 sequence (P35225 35-146 limits assumed): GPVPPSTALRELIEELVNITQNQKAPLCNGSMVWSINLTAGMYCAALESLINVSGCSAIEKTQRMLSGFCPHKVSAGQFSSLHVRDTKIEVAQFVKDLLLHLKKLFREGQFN
Experimental: as §1

recombinant human IL4 [5] = molecular target: T3, recombinant human IL4 (human, UniProt P05112 25-153); assay: SPR (Biacore 3000), antibody captured, antigen as analyte
T3 construct: bought
T3 sequence (looked up): T1 sequence (looked up)
Experimental: as §1

recombinant human IL4 [6] = molecular target: T3, recombinant human IL4; assay: as above; remark: listed apart in the source
Experimental: as §1

recombinant human IL4 [7] = molecular target: T3, recombinant human IL4; assay: cell-based or functional assay
recombinant human IL4 [8] = molecular target: T3, recombinant human IL4; assay: SPR (Biacore 3000), antibody captured, antigen as analyte; remark: listed apart in the source
Experimental: as §1

recombinant human IL4 [9] = molecular target: T3, recombinant human IL4; assay: cell-based or functional assay; remark: listed apart in the source
recombinant human IL4 [10] = molecular target: T3, recombinant human IL4; assay: SPR (Biacore 3000), CODV-Fab captured with anti-human Fab capture kit, antigen as analyte
Experimental: as §1

recombinant human IL4 [11] = molecular target: T3, recombinant human IL4; assay: cell-based or functional assay; remark: listed apart in the source
recombinant human IL4 [12] = molecular target: T3, recombinant human IL4; assay: SPR (Biacore 3000), antibody captured, antigen as analyte; remark: listed apart in the source
Experimental: as §1

recombinant human IL13 [13] = molecular target: recombinant human IL13 (human, UniProt P35225 35-146, limits assumed); assay: cell-based or functional assay
Target sequence in this assay (P35225 35-146 limits assumed): as above

B1: parental anti-IL4 mAb (antibody, V domains shown)
VH: QVQLQQSGPELVKPGASVKISCKASGYSFTSYWIHWIKQRPGQGLEWIGMIDPSDGETRLNQRFQGRATLTVDESTSTAYMQLRSPTSEDSAVYYCTRLKEYGNYDSFYFDVWGAGTLVTVSS
VL: DIQMTQSPASLSVSVGDTITLTCHASQNIDVWLSWFQQKPGNIPKLLIYKASNLHTGVPSRFSGSGSGTGFTLTISSLQPEDIATYYCQQAHSYPFTFGGGTKLEIKR
notes: also called parental humanized anti-IL4; 8D4
Kd (recombinant human IL4 [1]): 0.00783 nM
koff (recombinant human IL4 [1]): 0.000195 s⁻¹
kon (recombinant human IL4 [1]): 2.49e+07 M⁻¹ s⁻¹

B2: TBTI/DVD-Ig molecule incorporating anti-IL4 and anti-IL13 sequences (FIG. 7, upper panel) (bispecific antibody)
heavy: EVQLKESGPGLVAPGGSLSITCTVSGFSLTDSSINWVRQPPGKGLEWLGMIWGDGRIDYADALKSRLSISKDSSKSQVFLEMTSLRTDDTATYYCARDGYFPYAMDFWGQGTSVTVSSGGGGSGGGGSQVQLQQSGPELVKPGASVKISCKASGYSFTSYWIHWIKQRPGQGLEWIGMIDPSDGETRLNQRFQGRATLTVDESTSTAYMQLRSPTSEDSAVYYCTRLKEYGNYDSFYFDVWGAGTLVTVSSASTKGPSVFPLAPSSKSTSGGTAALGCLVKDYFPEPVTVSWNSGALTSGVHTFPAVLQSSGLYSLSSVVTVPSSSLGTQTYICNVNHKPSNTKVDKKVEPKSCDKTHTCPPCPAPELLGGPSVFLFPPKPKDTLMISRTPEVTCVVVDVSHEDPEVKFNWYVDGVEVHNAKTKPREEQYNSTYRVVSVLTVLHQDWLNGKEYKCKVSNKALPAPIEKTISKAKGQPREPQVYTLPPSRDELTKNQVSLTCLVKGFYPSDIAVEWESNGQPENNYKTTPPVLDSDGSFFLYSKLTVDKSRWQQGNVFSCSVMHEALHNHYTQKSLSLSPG
light: DIVLTQSPASLAVSLGQRATISCRASESVDSYGQSYMHWYQQKAGQPPKLLIYLASNLESGVPARFSGSGSRTDFTLTIDPVQAEDAATYYCQQNAEDSRTFGGGTKLEIKGGGGSGGGGSDIQMTQSPASLSVSVGDTITLTCHASQNIDVWLSWFQQKPGNIPKLLIYKASNLHTGVPSRFSGSGSGTGFTLTISSLQPEDIATYYCQQAHSYPFTFGGGTKLEIKRTVAAPSVFIFPPSDEQLKSGTASVVCLLNNFYPREAKVQWKVDNALQSGNSQESVTEQDSKDSTYSLSSTLTLSKADYEKHKVYACEVTHQGLSSPVTKSFNRGEC
notes: also called TBTI/DVD-Ig format
Kd (recombinant human IL4 [2]): 0.0263 nM
koff (recombinant human IL4 [2]): 0.00015 s⁻¹
kon (recombinant human IL4 [2]): 5.7e+06 M⁻¹ s⁻¹

B4: CODV-Ig Batch ID 204 (IL4 × IL13 on HC; L1=7, L2=5, L3=1, L4=2) (bispecific antibody)
heavy: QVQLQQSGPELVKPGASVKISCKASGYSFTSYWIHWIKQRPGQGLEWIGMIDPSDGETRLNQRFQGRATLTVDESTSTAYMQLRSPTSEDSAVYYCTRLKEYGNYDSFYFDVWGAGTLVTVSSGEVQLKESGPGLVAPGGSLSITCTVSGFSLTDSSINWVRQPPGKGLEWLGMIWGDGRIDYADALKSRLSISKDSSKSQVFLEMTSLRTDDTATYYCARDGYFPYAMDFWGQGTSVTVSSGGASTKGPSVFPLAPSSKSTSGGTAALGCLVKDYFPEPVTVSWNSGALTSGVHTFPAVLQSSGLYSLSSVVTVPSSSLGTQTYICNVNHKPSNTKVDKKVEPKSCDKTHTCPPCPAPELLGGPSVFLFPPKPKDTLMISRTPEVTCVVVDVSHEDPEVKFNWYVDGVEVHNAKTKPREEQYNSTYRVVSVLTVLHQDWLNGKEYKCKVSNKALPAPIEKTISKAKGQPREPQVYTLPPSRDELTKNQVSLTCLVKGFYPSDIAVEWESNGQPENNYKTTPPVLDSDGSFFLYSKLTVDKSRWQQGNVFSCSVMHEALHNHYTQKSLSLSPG
light: DIVLTQSPASLAVSLGQRATISCRASESVDSYGQSYMHWYQQKAGQPPKLLIYLASNLESGVPARFSGSGSRTDFTLTIDPVQAEDAATYYCQQNAEDSRTFGGGTKLEIKGGGGGGGDIQMTQSPASLSVSVGDTITLTCHASQNIDVWLSWFQQKPGNIPKLLIYKASNLHTGVPSRFSGSGSGTGFTLTISSLQPEDIATYYCQQAHSYPFTFGGGTKLEIKGGGGGRTVAAPSVFIFPPSDEQLKSGTASVVCLLNNFYPREAKVQWKVDNALQSGNSQESVTEQDSKDSTYSLSSTLTLSKADYEKHKVYACEVTHQGLSSPVTKSFNRGEC
notes: 704 prints 'IL13 × IL4' and format 'CODV'; also called 801; 704
Kd (recombinant human IL4 [5]): 0.003 nM
Kd (recombinant human IL4 [6]): 0.003 nM
IC50 Cellular Assay IL4 [nM] (HEK-Blue IL-4/IL-13 reporter cells, SEAP) (recombinant human IL4 [7]): 0.045 nM

B7: CODV-Ig Batch ID 805 (Batch ID 204 with LC G117C, HC Q43C) (bispecific antibody)
heavy: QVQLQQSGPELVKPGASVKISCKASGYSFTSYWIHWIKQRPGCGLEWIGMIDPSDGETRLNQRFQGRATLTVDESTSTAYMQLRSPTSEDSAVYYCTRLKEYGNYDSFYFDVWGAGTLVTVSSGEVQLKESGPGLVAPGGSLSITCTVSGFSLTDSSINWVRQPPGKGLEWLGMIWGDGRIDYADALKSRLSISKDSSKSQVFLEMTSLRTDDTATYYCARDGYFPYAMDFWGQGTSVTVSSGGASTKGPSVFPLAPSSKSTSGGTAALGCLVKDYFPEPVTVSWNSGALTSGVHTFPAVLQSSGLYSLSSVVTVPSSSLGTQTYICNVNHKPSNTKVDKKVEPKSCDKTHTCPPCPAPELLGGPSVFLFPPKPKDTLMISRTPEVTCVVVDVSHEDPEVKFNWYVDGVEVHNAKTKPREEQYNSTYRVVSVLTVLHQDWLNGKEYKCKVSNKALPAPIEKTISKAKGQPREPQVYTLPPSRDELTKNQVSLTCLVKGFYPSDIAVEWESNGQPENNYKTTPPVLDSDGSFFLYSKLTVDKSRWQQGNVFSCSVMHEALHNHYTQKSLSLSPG
light: B4 light with G117C
notes: The mutation numbers are read as counts along the whole chain: G117C lies in L1 as printed; Q43C lies in the N-terminal anti-IL4 VH
Kd (recombinant human IL4 [6]): 0.007 nM
IC50 Cellular Assay IL4 [nM] (HEK-Blue IL-4/IL-13 reporter cells, SEAP) (recombinant human IL4 [7]): 0.047 nM

B8: CODV-Ig Batch ID 804 (Batch ID 204 with LC G116C, HC Q43C) (bispecific antibody)
heavy: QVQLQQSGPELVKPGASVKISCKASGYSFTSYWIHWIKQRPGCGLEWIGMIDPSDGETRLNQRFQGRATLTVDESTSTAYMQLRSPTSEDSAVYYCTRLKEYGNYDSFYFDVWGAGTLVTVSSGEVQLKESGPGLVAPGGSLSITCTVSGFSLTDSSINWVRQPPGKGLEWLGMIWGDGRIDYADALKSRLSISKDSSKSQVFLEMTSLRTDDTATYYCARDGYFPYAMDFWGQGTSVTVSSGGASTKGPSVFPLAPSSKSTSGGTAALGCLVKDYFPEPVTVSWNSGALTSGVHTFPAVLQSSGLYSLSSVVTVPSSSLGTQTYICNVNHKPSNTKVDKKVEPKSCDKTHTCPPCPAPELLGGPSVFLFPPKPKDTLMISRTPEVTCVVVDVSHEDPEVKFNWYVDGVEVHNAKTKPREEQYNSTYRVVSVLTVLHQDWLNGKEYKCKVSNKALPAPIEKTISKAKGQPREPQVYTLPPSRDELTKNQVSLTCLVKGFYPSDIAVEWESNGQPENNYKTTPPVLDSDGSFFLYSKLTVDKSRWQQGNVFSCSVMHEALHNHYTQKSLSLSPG
light: B4 light with G116C
modifications: Engineered cysteine pair LC C116 (in L1) and HC C43, intended inter-chain disulfide.
notes: The mutation numbers are read as counts along the whole chain: G116C lies in L1 as printed; Q43C lies in the N-terminal anti-IL4 VH
Kd (recombinant human IL4 [6]): 0.002 nM
IC50 Cellular Assay IL4 [nM] (HEK-Blue IL-4/IL-13 reporter cells, SEAP) (recombinant human IL4 [7]): 0.04 nM

B9: CODV-Ig Batch ID 803 (Batch ID 204 with LC G115C, HC Q43C) (bispecific antibody)
heavy: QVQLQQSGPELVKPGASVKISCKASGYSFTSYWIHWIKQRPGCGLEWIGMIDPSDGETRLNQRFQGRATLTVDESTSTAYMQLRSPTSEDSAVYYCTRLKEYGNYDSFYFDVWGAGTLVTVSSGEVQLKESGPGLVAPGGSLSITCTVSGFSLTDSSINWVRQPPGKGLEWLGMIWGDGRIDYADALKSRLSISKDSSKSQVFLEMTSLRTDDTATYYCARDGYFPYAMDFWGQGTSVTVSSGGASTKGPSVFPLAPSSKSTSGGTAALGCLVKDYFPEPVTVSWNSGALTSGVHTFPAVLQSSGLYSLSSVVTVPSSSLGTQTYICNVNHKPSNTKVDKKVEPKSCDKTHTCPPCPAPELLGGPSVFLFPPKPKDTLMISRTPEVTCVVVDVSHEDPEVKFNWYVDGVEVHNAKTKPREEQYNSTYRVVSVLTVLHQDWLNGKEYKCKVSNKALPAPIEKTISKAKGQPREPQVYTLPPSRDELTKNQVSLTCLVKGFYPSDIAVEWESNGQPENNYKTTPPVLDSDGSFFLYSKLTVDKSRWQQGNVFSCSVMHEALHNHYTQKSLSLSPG
light: B4 light with G115C
modifications: Engineered cysteine pair LC C115 (in L1) and HC C43, intended inter-chain disulfide.
notes: The mutation numbers are read as counts along the whole chain: G115C lies in L1 as printed; Q43C lies in the N-terminal anti-IL4 VH
Kd (recombinant human IL4 [6]): 0.006 nM
IC50 Cellular Assay IL4 [nM] (HEK-Blue IL-4/IL-13 reporter cells, SEAP) (recombinant human IL4 [7]): 0.036 nM

B12: CODV-Ig Batch ID 508 (IL4 × IL13 on HC; L1 HIDSPNK, L2 QRIEG, L3 V, L4 SL) (bispecific antibody)
heavy: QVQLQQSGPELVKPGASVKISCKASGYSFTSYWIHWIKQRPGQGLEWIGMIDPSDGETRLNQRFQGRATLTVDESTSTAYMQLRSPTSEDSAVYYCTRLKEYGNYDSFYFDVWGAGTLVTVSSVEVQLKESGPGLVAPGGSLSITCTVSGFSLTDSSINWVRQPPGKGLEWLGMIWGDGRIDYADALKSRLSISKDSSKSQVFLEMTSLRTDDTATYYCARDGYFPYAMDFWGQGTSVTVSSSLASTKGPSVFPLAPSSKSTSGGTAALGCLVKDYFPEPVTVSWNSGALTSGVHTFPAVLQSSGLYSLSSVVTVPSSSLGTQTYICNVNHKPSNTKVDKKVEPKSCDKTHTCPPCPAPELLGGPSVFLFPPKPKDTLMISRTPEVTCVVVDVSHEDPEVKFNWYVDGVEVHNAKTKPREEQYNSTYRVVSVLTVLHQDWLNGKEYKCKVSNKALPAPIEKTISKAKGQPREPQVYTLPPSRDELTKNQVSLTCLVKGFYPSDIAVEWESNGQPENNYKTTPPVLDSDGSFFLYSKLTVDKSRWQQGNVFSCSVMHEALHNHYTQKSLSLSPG
light: DIVLTQSPASLAVSLGQRATISCRASESVDSYGQSYMHWYQQKAGQPPKLLIYLASNLESGVPARFSGSGSRTDFTLTIDPVQAEDAATYYCQQNAEDSRTFGGGTKLEIKHIDSPNKDIQMTQSPASLSVSVGDTITLTCHASQNIDVWLSWFQQKPGNIPKLLIYKASNLHTGVPSRFSGSGSGTGFTLTISSLQPEDIATYYCQQAHSYPFTFGGGTKLEIKQRIEGRTVAAPSVFIFPPSDEQLKSGTASVVCLLNNFYPREAKVQWKVDNALQSGNSQESVTEQDSKDSTYSLSSTLTLSKADYEKHKVYACEVTHQGLSSPVTKSFNRGEC
IC50 Cellular Assay IL4 [nM] (HEK-Blue IL-4/IL-13 reporter cells, SEAP) (recombinant human IL4 [11]): 0.054 nM
Kd (recombinant human IL4 [12]): 0.001 nM

B13: CODV-Ig Batch ID 601 (Batch ID 204 with P344C & A432C in IGHG1) (bispecific antibody, human IgG1, kappa)
heavy: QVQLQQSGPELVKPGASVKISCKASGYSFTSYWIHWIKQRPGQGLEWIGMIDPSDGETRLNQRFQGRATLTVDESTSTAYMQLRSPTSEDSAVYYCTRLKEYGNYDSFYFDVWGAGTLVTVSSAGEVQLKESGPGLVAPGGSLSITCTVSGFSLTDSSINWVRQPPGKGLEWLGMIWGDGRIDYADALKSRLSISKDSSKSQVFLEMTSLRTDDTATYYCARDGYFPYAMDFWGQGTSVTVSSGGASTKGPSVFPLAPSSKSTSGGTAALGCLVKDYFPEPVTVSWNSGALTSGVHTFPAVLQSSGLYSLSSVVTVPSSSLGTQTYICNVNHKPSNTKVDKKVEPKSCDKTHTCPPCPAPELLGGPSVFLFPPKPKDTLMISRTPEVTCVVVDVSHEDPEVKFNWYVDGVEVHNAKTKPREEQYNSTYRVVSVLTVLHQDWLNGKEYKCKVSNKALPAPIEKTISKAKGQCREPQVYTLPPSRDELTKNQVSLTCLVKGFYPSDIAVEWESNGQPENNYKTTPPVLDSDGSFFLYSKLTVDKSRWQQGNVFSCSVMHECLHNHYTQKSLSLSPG
light: DIVLTQSPASLAVSLGQRATISCRASESVDSYGQSYMHWYQQKAGQPPKLLIYLASNLESGVPARFSGSGSRTDFTLTIDPVQAEDAATYYCQQNAEDSRTFGGGTKLEIKGGGGGGGDIQMTQSPASLSVSVGDTITLTCHASQNIDVWLSWFQQKPGNIPKLLIYKASNLHTGVPSRFSGSGSGTGFTLTISSLQPEDIATYYCQQAHSYPFTFGGGTKLEIKRGGGGGRTVAAPSVFIFPPSDEQLKSGTASVVCLLNNFYPREAKVQWKVDNALQSGNSQESVTEQDSKDSTYSLSSTLTLSKADYEKHKVYACEVTHQGLSSPVTKSFNRGEC
IC50 Cellular Assay IL13 [nM] (HEK-Blue IL-4/IL-13 reporter cells, SEAP) (recombinant human IL13 [13]): 1.7 nM
IC50 Cellular Assay IL4 [nM] (HEK-Blue IL-4/IL-13 reporter cells, SEAP) (recombinant human IL4 [9]): 0.032 nM

B14: CODV-Ig Batch ID 130 (IL4 × IL13 on LC; L1=1, L2=4, L3=2, L4=4) (bispecific antibody)
chain 1: not shown
chain 2: DIQMTQSPASLSVSVGDTITLTCHASQNIDVWLSWFQQKPGNIPKLLIYKASNLHTGVPSRFSGSGSGTGFTLTISSLQPEDIATYYCQQAHSYPFTFGGGTKLEIKGDIVLTQSPASLAVSLGQRATISCRASESVDSYGQSYMHWYQQKAGQPPKLLIYLASNLESGVPARFSGSGSRTDFTLTIDPVQAEDAATYYCQQNAEDSRTFGGGTKLEIKGGGGRTVAAPSVFIFPPSDEQLKSGTASVVCLLNNFYPREAKVQWKVDNALQSGNSQESVTEQDSKDSTYSLSSTLTLSKADYEKHKVYACEVTHQGLSSPVTKSFNRGEC
Kd (recombinant human IL4 [3]): 0.004 nM
Kd (recombinant human IL13 [4]): 0.057 nM

Other lines, results leading:

Kd (recombinant human IL4 [3]): 0.005 nM
Kd (recombinant human IL13 [4]): 0.07 nM
B3: CODV-Ig Batch ID 129 (IL4 × IL13 on LC; L1=1, L2=3, L3=2, L4=4) (bispecific antibody)
chain 1: not shown
chain 2: DIQMTQSPASLSVSVGDTITLTCHASQNIDVWLSWFQQKPGNIPKLLIYKASNLHTGVPSRFSGSGSGTGFTLTISSLQPEDIATYYCQQAHSYPFTFGGGTKLEIKGDIVLTQSPASLAVSLGQRATISCRASESVDSYGQSYMHWYQQKAGQPPKLLIYLASNLESGVPARFSGSGSRTDFTLTIDPVQAEDAATYYCQQNAEDSRTFGGGTKLEIKGGGRTVAAPSVFIFPPSDEQLKSGTASVVCLLNNFYPREAKVQWKVDNALQSGNSQESVTEQDSKDSTYSLSSTLTLSKADYEKHKVYACEVTHQGLSSPVTKSFNRGEC

Kd (recombinant human IL4 [8]): 0.004 nM
IC50 Cellular Assay IL4 [nM] (HEK-Blue IL-4/IL-13 reporter cells, SEAP) (recombinant human IL4 [9]): 0.036 nM
B5: CODV-Ig Batch ID 603 (Batch ID 204 with P446G447 to G446E447C448 in IGHG1) (bispecific antibody)
heavy: QVQLQQSGPELVKPGASVKISCKASGYSFTSYWIHWIKQRPGQGLEWIGMIDPSDGETRLNQRFQGRATLTVDESTSTAYMQLRSPTSEDSAVYYCTRLKEYGNYDSFYFDVWGAGTLVTVSSGEVQLKESGPGLVAPGGSLSITCTVSGFSLTDSSINWVRQPPGKGLEWLGMIWGDGRIDYADALKSRLSISKDSSKSQVFLEMTSLRTDDTATYYCARDGYFPYAMDFWGQGTSVTVSSGGASTKGPSVFPLAPSSKSTSGGTAALGCLVKDYFPEPVTVSWNSGALTSGVHTFPAVLQSSGLYSLSSVVTVPSSSLGTQTYICNVNHKPSNTKVDKKVEPKSCDKTHTCPPCPAPELLGGPSVFLFPPKPKDTLMISRTPEVTCVVVDVSHEDPEVKFNWYVDGVEVHNAKTKPREEQYNSTYRVVSVLTVLHQDWLNGKEYKCKVSNKALPAPIEKTISKAKGQPREPQVYTLPPSRDELTKNQVSLTCLVKGFYPSDIAVEWESNGQPENNYKTTPPVLDSDGSFFLYSKLTVDKSRWQQGNVFSCSVMHEALHNHYTQKSLSLSGEC
light: B4 light
notes: C-terminal change P446G447 to G446E447C448

Kd (recombinant human IL4 [10]): 0.012 nM
B6: CODV-Fab Batch ID 421 (IL4 × IL13; L1=7, L2=5, L3=1, L4=2) (bispecific antibody)
heavy: QVQLQQSGPELVKPGASVKISCKASGYSFTSYWIHWIKQRPGQGLEWIGMIDPSDGETRLNQRFQGRATLTVDESTSTAYMQLRSPTSEDSAVYYCTRLKEYGNYDSFYFDVWGAGTLVTVSSGEVQLKESGPGLVAPGGSLSITCTVSGFSLTDSSINWVRQPPGKGLEWLGMIWGDGRIDYADALKSRLSISKDSSKSQVFLEMTSLRTDDTATYYCARDGYFPYAMDFWGQGTSVTVSSGGASTKGPSVFPLAPSSKSTSGGTAALGCLVKDYFPEPVTVSWNSGALTSGVHTFPAVLQSSGLYSLSSVVTVPSSSLGTQTYICNVNHKPSNTKVDKKVEPKSCDKTHTHHHHHH
light: B4 light

Kd (recombinant human IL4 [8]): 0.01 nM
IC50 Cellular Assay IL4 [nM] (HEK-Blue IL-4/IL-13 reporter cells, SEAP) (recombinant human IL4 [9]): 0.034 nM
B10: CODV-Ig Batch ID 602 (Batch ID 204 with S376C & P397C in IGHG1) (bispecific antibody)
heavy: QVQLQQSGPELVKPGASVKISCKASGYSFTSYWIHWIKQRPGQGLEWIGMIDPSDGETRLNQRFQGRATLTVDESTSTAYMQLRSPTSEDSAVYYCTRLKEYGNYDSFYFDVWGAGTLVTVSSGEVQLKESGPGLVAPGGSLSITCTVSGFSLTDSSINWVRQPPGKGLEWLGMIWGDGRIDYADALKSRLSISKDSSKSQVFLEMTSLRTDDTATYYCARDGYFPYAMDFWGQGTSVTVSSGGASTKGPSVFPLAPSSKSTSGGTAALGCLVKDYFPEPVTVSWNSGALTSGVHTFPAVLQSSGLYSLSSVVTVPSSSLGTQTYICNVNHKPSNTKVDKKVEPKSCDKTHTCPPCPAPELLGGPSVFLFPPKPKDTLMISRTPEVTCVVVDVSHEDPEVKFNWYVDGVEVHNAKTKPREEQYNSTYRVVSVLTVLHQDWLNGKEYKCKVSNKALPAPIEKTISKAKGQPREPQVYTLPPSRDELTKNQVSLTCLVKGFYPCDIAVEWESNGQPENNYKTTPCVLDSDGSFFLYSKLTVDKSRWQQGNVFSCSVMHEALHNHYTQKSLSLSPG
light: B4 light
modifications: Engineered cysteine pair in CH3 (intended intradomain disulfide C376-C397, patent's count).
notes: The mutation numbers are those of the column 'Introduced Mutations IGHG1'

Kd (recombinant human IL4 [6]): 0.006 nM
IC50 Cellular Assay IL4 [nM] (HEK-Blue IL-4/IL-13 reporter cells, SEAP) (recombinant human IL4 [7]): 0.027 nM
B11: CODV-Ig Batch ID 802 (Batch ID 204 with LC G114C, HC Q43C) (bispecific antibody)
heavy: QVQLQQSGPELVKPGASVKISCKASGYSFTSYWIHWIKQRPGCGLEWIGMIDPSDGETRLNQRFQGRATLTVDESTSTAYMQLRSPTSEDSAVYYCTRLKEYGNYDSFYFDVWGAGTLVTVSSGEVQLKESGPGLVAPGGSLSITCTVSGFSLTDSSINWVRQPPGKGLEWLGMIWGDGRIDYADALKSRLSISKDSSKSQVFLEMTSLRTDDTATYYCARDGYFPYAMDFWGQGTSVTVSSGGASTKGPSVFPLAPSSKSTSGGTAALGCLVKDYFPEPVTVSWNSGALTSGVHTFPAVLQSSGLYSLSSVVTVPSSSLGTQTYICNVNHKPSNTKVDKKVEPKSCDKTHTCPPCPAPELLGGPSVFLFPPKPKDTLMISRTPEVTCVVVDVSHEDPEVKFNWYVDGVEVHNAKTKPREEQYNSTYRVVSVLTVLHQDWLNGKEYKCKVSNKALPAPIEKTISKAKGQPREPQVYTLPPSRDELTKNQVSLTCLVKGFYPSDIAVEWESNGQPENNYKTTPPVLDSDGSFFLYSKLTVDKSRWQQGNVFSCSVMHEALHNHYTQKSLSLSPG
light: B4 light with G114C
modifications: Engineered cysteine pair LC C114 (in L1) and HC C43, intended inter-chain disulfide.
notes: The mutation numbers are read as counts along the whole chain: G114C lies in L1 as printed; Q43C lies in the N-terminal anti-IL4 VH
